Test results taken from patent publication US20150126713A1 (Astellas, published 2015).
Residue numbers refer to the chain shown, from its start.

T1: human IL-23R-mouse Fc fusion protein (human; mouse, UniProt Q5VWK5 24-353)
T1 construct: Expressed in FreeStyle 293 cells; also called human IL-23R-Fc fusion protein; not shown: Fc region of mouse immunoglobulin IgG2a as encoded by vector pFUSE-mIgG2A-Fc2 (InvivoGen); limits and any linker not sta
T1 sequence: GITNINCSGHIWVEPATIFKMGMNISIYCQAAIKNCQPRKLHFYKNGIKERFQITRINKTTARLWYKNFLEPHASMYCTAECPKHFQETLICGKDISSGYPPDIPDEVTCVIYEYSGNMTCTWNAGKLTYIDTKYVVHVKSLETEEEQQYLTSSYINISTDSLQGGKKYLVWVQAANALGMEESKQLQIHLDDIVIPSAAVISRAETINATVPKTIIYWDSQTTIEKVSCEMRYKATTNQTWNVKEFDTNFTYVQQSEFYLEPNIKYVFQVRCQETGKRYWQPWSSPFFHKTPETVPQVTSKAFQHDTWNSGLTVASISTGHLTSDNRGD

T2: human IL-23R on Kit-225 cells (human, UniProt Q5VWK5 24-629)
T2 sequence: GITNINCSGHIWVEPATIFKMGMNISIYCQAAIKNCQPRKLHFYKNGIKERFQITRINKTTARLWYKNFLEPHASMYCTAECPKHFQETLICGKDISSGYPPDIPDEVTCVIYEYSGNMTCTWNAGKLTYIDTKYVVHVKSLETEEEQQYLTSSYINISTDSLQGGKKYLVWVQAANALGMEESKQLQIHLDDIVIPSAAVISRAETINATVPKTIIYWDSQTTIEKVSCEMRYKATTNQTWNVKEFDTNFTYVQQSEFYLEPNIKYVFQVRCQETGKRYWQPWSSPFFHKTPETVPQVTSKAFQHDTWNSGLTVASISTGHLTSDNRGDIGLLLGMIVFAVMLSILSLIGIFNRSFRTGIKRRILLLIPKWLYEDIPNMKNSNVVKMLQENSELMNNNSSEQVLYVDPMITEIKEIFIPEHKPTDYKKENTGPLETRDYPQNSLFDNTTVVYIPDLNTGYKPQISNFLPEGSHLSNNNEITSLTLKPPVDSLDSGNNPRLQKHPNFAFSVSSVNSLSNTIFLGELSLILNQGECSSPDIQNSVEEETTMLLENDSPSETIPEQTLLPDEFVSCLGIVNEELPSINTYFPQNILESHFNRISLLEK

B1: fully human 25-3-1 (antibody, human IgG1, kappa, V domains shown)
VH: QVQLQESGPGLVKPSQTLSLTCSVSGGSIDSGDHYWTWIRQHPGKGLEWIGYIYSSGHTYYSPSLKSRVTISVDTSKNQFSLRLSSVTAADTAVYYCARVGDYEWFDTWGQGTLVTVSS
VL: DIVMTQSPDSLAVSLGERATINCKSSQTILYPSNNMNYLGWYQQRAGQSPRLLIYWASTRESGVPDRFSGSGSGTDFTLTISSLQAEDVAVYYCQQYYSSLPTFGQGTKVEIKR
notes: human Ig gamma1 / kappa
B2: fully human 25-3-2 (antibody, human IgG1, kappa, V domains shown)
VH: B1 VH
VL: B1 VL with R45K, A46P
notes: human Ig gamma1 / kappa
B3: fully human 25-3 (antibody, human IgG1, kappa, V domains shown)
VH: B1 VH with L11Q, K45E, G46V, V69L, I71M, V73L
VL: B1 VL
notes: Human Ig gamma1 / human kappa constant regions; expressed in CHO-K1SV cells; also called fully human antibody of 25-3
B4: fully human 25-3-4 (antibody, human IgG1, kappa, V domains shown)
VH: B1 VH with D30S
VL: B1 VL with R45K, A46P
notes: human Ig gamma1 / kappa
B5: fully human 25-3-3 (antibody, human IgG1, kappa, V domains shown)
VH: B1 VH with D30S
VL: B1 VL
notes: human Ig gamma1 / kappa
B6: 25-3 (chimeric) (antibody, V domains shown)
VH: B1 VH with L11Q, K45E, G46V, V69L, I71M, V73L
VL: B1 VL
notes: also called antibody (chimeric antibody) named 25-3

The binders below were run against T1, human IL-23R-mouse Fc fusion protein (assay: antigen ELISA, human IL-23R-mouse Fc immobilized, HRP anti-human IgG, chemiluminescence).
Description: (§1) The present inventors used an antigen ELISA to measure the antigen-specific binding activities of the fully human antibodies constructed in the above-described Example. A human or monkey IL-23R-Fc fusion protein was immobilized onto a Maxisorp 384-well plate (Nunc, Inc.) at a concentration of 500 ng/mL. A blocking agent (Blocking One; Nacalai Tesque, Inc.) was added thereto and allowed to stand at room temperature for 1 hour, followed by washing twice with a wash buffer [TPBS: 0.05% Tween-20-containing phosphate buffered saline (PBS)], and each of the purified antibody samples was suitably serially diluted and added thereto. Incubation was performed at room temperature for 1 hour, followed by washing four times with TPBS, and HRP-labeled anti-human IgG antibody (DAKO) which was 2000-fold diluted with dilution buffer (Blocking One which was two-fold diluted with PBS) was added as secondary antibody. Incubation was performed at room temperature for 1 hour, followed by washing four times with a washing buffer. […] of BM-chemiluminescence ELISA substrate (POD) (Roche Diagnostics) that is a reagent for detecting chemiluminescence was added thereto and the amount of chemiluminescence was measured with an EnVision counter (Perkin Elmer). Each of the antibodies was tested in duplicate, and the EC 50 was analyzed by curve fitting.

How did the EC50 turn out when B1 was run?
The EC50 was 0.0176 µg/mL.

For B2, which EC50 is on record?
The EC50 was 0.0164 µg/mL.

With B3 as the binder, how does the EC50 read?
The EC50 was 0.019 µg/mL.

How did the EC50 turn out when B4 was run?
The EC50 was 0.0223 µg/mL.

Which EC50 does the source give for B5 here?
Its EC50 is 0.0221 µg/mL.

The binders below were run against T3, monkey IL-23R-mouse Fc fusion protein (monkey; mouse) (assay: antigen ELISA, monkey IL-23R-mouse Fc immobilized, HRP anti-mouse Ig, chemiluminescence).
T3 construct: extracellular domain; also called monkey IL-23R-Fc fusion protein
Description: (§2) The present inventors used an antigen ELISA to measure the antigen-specific binding activity of the antibody. The human or monkey IL-23R-Fc fusion protein was immobilized onto a Maxisorp 384-well plate (Nunc, Inc.) at a concentration of 500 ng/mL. A blocking agent (Blocking One; Nacalai Tesque, Inc.) was added thereto and allowed to stand at room temperature for 1 hour, followed by washing twice with a wash buffer [TPBS: a phosphate buffered saline (PBS) containing 0.05% Tween-20], and the purified antibody samples were suitably serially diluted and added thereto. Incubation was performed at room temperature for 1 hour, followed by washing four times with TPBS, and HRP-rabbit anti-mouse Ig antibody (DAKO) which was 2000-fold diluted with a dilution buffer (Blocking One which was two-fold diluted with PBS) was added. Incubation was performed at room temperature for 1 hour, followed by washing four times with a wash buffer. 40 μL of BM-chemiluminescence ELISA substrate (POD) (Roche Diagnostics), which is a reagent for detecting chemical luminescence, was added, and the amount of chemiluminescence was measured with an EnVision counter (Perkin Elmer). Each antibody was tested in duplicate and the EC50 was analyzed by curve fitting. […]

Which EC50 does the source give for B6 here?
The EC50 was 0.028 µg/mL.

The binders below were run against T1, human IL-23R-mouse Fc fusion protein (assay: antigen ELISA, human IL-23R-mouse Fc immobilized, HRP anti-mouse Ig, chemiluminescence).
Description: as §2

How did the EC50 turn out when B6 was run?
Its EC50 is 0.021 µg/mL.

What follows are binders tested against T3, monkey IL-23R-mouse Fc fusion protein (assay: antigen ELISA, monkey IL-23R-mouse Fc immobilized, HRP anti-human IgG, chemiluminescence).
Description: as §1

How did the EC50 turn out when B1 was run?
Its EC50 is 0.0124 µg/mL.

B2 was tested. Which EC50 did it give?
The EC50 was 0.0122 µg/mL.

Which EC50 does the source give for B3 here?
Its EC50 is 0.0123 µg/mL.

For B4, which EC50 is on record?
Its EC50 is 0.0121 µg/mL.

B5 was tested. Which EC50 did it give?
The EC50 was 0.0121 µg/mL.

These binders were tested against T2, human IL-23R on Kit-225 cells (assay: cell-based or functional assay).

With B1 as the binder, how does the “Human IL-23-inducible Kit-225 cell proliferation inhibitory activity, IC50” value read?
The value was 0.00309 µg/mL.

For B2, which “Human IL-23-inducible Kit-225 cell proliferation inhibitory activity, IC50” value is on record?
The value was 0.00266 µg/mL.

With B3 as the binder, how does the “Human IL-23-inducible Kit-225 cell proliferation inhibitory activity, IC50” value read?
The value was 0.00225 µg/mL.

With B4 as the binder, how does the “Human IL-23-inducible Kit-225 cell proliferation inhibitory activity, IC50” value read?
The value was 0.00348 µg/mL.

How did the “Human IL-23-inducible Kit-225 cell proliferation inhibitory activity, IC50” value turn out when B5 was run?
The value was 0.00568 µg/mL.
